# Results from the domain aggregation screens of Martell et al. (2025).
# Experiment: soluble fraction after stress (log2 fold change); higher = more stays soluble; pooled small domains, quantitative proteomics
# Conditions: stress: pH 4
# Summary of the method: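 Custom libraries of small protein domains were pooled and exposed to pH 4. High-throughput quantitative proteomics then measured the log2 fold change in the amount of each domain still soluble, with higher values meaning more stayed soluble. This soluble-fraction fold change stands for aggregation propensity.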
row,Sequence,soluble fraction (log2)
1,HMGRFAETVEHIVAAQLARRQGIPTMEQFASFFNVSRATFQRRLGEEGETLEQIKQRVRLRLALELLHP,-0.441
2,HMLSGGEVKRIEIATILARKSGLMIFDEPEAGIDLWSFARLVETFEDIRSNTSGSLVIISHQ,-0.0926
3,HMEPQLVKSFDVQTELTYDQFLSKYPESHTLGRLLVQPEPIPFEPYKNIPGITPEKLLALHAKHLEAR,-0.169
4,HMHSPLLDRYLAEVGWRLRHLSGAQREDILAGLREHIADLESAGVAPEEIVARLGSPESVADAAAGEF,0.0489
5,HMDAPKPDIGMSTDQIRSSLGQPGSQTRLETGGGRIYELWIYLYPDGKELQIYFDNAKVVKMEALS,-0.419
6,HMYMWQVEDLLRANELDIENIKKTIIDHYQLDDAQKSELTRWYEDLINMMRLEGVTKEGHLQINK,-1.75
7,HMQSREISYSDFVASVERGEVATVILDGENIRFKGGDNVEYVTVRPADTNVTDLLIENQVVVRAEK,-0.824
8,HMSKSKSEIDKDPHFWSSLFQRIGEGESLRKIAKDSKIPKSTLWAWIRNDPQLALRYSEAQQ,0.00982
9,HMEVDDEAIYQGHEPSIRLHRLLKDVGYNSALLPSVVTQIFKDFPGIELAKALPIAMQLLNED,-1.47
10,HMGISSESIKTFIREIVENEDPKAPLSDQTMVELLAERGIDISRRTVAKYRDEMNLPSSSKRKR,-0.168
11,HMGTGADKNSWTIGDKVKHRKWGTGTVVKVTGAGEDAELDIAFKSEGIKRLLAAFAPIEKVK,-0.0706
12,HMTFGEMLQYTNRLKEILESNAPQSIKDRRLANLMTDLEQAYGIPILRDQEFEKENPFLMQLYRTIS,-1.36
13,HMNPDTERIREFVAVSLKNRKVATSGEIQNMIVKQFKNFKLKSHGYSNMKSFLSSIDKIQLNSNGKYSLK,0.0764
14,HMIDTTKILPGQEFKNMQELSVALTGQKMPAGKGYVLQQEKFKLYFSWKKITGTHKLIIDEIYEEPKT,-0.573
15,HMDPLPDEVQEVIDMVDGFKAMDELSEADKADVKAAYDAYNALSAEHKAMVPEHIVTFLNRAYDKLFD,-1.63
16,HMNEWSIDINLADEKQWTAKTKLSPAIIQNIIRYKNYLGGFTNLNQIKKVYGFTEANYYLLKPHLQLGK,-0.386
17,HMSEPHPPFQVVAQFPYKSEYEDDLNFEKDQIITVTSIEDDEWYYGDFKNKGGELVEGIFPKSFVTVK,-0.867
18,HMNLLDYDFFEKMSSKEQEEIVEKVYIDFLNKSTGTNSPFYLKLFEKGKKSYIVNWLNENNF,-1.06
19,HMNKIGTIVSINGPIVKTAGDVGFVMHEMVYVGKEKLVGEVIGLTTDFTIVEVYEETSGIKPGETIEGT,0.00293
20,HMIINLGELLKMLEVNKYQDAMDALDSLIEEGGSLEKIESLHEIRQHTHAMNFREAERLLSILIESEGA,-1.41
21,HMPTPASGSSGYINATNVNFRTGPATSYKSISKLAKNTAVTILGTSGNWYKVTVGSLGKNGYVFATYVTVS,-0.332
22,HMQKLSPKQRRGNIIELIKENPTITAKNISTIFNLNQRTIERDLAKLTEEGYIKYEGSSKDGKWVFL,≥ 0.43
23,HMSDTVDITKLGIAGKTKEAAEALLKENGFSVESKEENSDTIEKGKVISYSPTKPKNGDRITLIVSSGKK,0.301
24,HMFKEVPVPDVKGMTLEEAKLALEKEGFILGKTEEAESTEVAAGKIISQNLEAGKIAKQGTSVNLVVSKGK,-0.0392
25,HMYELDIYPNPAIDKINVLLPSSTTLPVKVEIYDIMGKKVNSLLTTKKAFTIETDQFEKGIYFVKA,0.187

row,Sequence,soluble fraction (log2)
1,HMAIRLIKASREFNVGISTIVEFLEKKGHAIDSDPNSKIPDELYQLIEKEFQTEGSVKKAAKQI,-0.335
2,HMPKDMAKRASILTAASKLFVQHGYGGVSMDQIAAEAGVSKLTVYSHYGDKDSLFAAAVQAH,0.163
3,HMKNAYDLKMLVKDNDGNIERNMKYYFFLANGSKVEGITDDNGYTKTITTIQPEKADLHLINDELI,-0.0557
4,HMGAPVIYELTAESAAGQRIDKYLSGQLADLSRSYLQKLLKDGGVEVNKKPVKSNYKLSEGDQIRLEVPEA,-0.198
5,HMDGVTEYTVKSGDSFSAIINKHYNVNYDEKLMQAVAAYNNIEDMNKLQLGQIIKLPPKEQLNL,-0.118
6,HMRSPIWKSITATLTAEIAGGQYRAGDKLPTEAELSQRFGVNRHTLRRALAEMAGAGLVVARRGAGVFVQG,-0.289
7,HMHPVTGRIGTVTAANGLNLRADSSEYANVVATLGYGVDVTVTGERINGFYPVRVGTLSGYVSADYVSFNS,-0.299
8,HMQKPIKPVKMHTVGPKENLSSIGRMYEVNGRVLANYNNIDYDKGLTIGQVLKIPPKGTTLEQVT,0.0149
9,HMHVSLSGKIHSELRKLILNGELKAGERLPSEPDLAHELGVSRNSLREAIGLLQREGLLLKKHGIGTFVTD,0.183
10,HMVPAMEVALEDARRAIEQVVSGERTSVQLSSQEAMIRKLQHQMAKDANLFSRSSGVEPQRRVTIYTN,-0.478
11,HMRDYKTHLQEVLQSKGEVNIWYKLIDEKGPDHNKKFVMQVGIDSKILGFGEGKSKKEAEQVAARKALDNI,-0.317
12,HMAMNITQRHQEILAVIKQEKHITVSEISKLLGVSEVTIRKDFNYLEEKNLIYRHHGGASLNN,-0.0786
13,HMNSIQEQIEKYVYSLAPVTIERYESLKNGDIEDIEFEKLRKSISSKIINEKIDNKKQVAILSHLKKMYSD,-0.472
14,HMEGEVVESPLVGVAYLASGPDKPAFVQVGDSVSKGQTLLIIEAMKVMNEVPAPRDGIVTEILV,-0.279
15,HMGPTLSPAEKRVFEVIPYDAILQDMVIRAAELPPGEVLAALTTLELKGLIKRLPGNLVMRRAR,-0.267
16,HMLKDKLSDKDFDFYKNKIQIQLQGNPTELKELVRRFSSTEEQQILKTIDYMLDNGFLRIDEDNMIYWK,-1.8
17,HMSELSGSQLKAIREEKHIPLEQVASATRIRLSLLEALEMDEYAELGSRTQARGFLKLYADFLGVPFEA,0.00575
18,HMETITDRLNRRSLELNVSQADIIRTTGAGRGTVSGWFSGANAPSAKYLESLAVALKTSTTWLLSGKD,0.0972
19,HMGEVYPSDIVEKMKQANLHILEGTLYPLLTRLKNAGLLNYRWVESVTGPPRKYFVMTEEGKAAF,0.0276
20,HMGMAETTARILQLLGLLQSRRGWSGQELAERLGVTTRSVRRDVERLRELGYPVHASAGHGGGYQLGA,-0.106
21,HMEIRNLMPILSHFLNENDIKLSRESVNLVLDRASGNRENLNNELKKIHDYSFSNKIIDFETIKKLTNLG,-0.215
22,HMSTTYLNEGDRITLTDSVNIRTSMSETADRVGLAYQGDVVTVIMSYAEGWTKVSWNGQTGYAKTEYL,-0.0679
23,HMPEPMKLSDLPPELWQRVSDLFDEVIDLPETDRIPYIRNLWGSEPLVAKELMALLVAAANVD,-1.1
24,HMNEDYSSMVGKTGFALTILRPAGKIMIEEEVFDAVAINGYISKGQEVEVVRYENAQLYVKVK,-0.228
25,HMFTGELESRVFELNYVDGLVASAALAGVLTDKGSATPIASRAGGENDMLLVVDRIASYSQIEKIITQLD,-1.31

row,Sequence,soluble fraction (log2)
1,HMSQEHTVPDYKDMEATVVYADLTQKGLNYEIAQETSPTIKEGNVTQTIPGMNEKVVSGDTITVFVSTGTG,-0.907
2,HMTEEPISDGIKKLVEEWENIEGNLIMIFHGIQKHYGYVPRNVAKYVSEAIDVPLTRIYEILTFYNYFTM,-1.43
3,HMNDLIKMPYLVGQLYDDVASNQEYADFQFKITEGNDPDKQPGEIMKQDPAADIMVKKNAEVELLVNG,0.193
4,HMNHYIGVDRAKEIALNHANLSETDVVFTKEKLENDDGGAEYEIEFHSGRTEYDYTIDAASGNIIEYDVDY,-0.17
5,HMDLGLTDDQRLVYGLLSPTVPRSSGELLGMVDFGRSKLSRILKELIELGQVFTVGVGRGLKYKRG,-0.256
6,HMGDLDLVTFGQRLRHLRRSRNMTLSELGERVGRAPSQLSLLENGKREPKLSLLTALAKALDVSVEEL,0.178
7,HMVNDQSIYASEGYVHIRSGKPVSLRIYTILGALYRHEERLVGDHVIALPRGLYIVVLNHTAKKIMV,0.021
8,HMTGRVKWYDATKGFGFVTSDEGGDVFLPKGALPAGVADLKTGQRIEFGVVDSRKGAQALGVK,-0.22
9,HMSEQMQVGELVFQLHRKAIKNLHINVLPPDGFVRVSAPQAMTETAIRTAVISRLPWIRRQQQAFAAQ,≥ 0.43
10,HMADLIIMSSDATEKQVDKVINKIKNMGFNVNISKGTEKTIIGIIGDTRGISDEVFKIMPGVIEVISILRD,-0.38
11,HMRQKTTFFATESFELPNGEKVEEGQIFRLNDGAFNIAEQQGITRFLTSEANYGRMIAANAEVEKAKLDA,-1.05
12,HMSLTEESAKSLIGLTENEAVKVAAERGWTVRVAMRDGEAFMLTQDYSENRVNLTVMKTLVTAVTI,-0.0567
13,HMDLFSAVVHHIVGQQISTKAQATIWKRMRDEFGVVDAAAVLGAGVEKLQSFGMTFRKAEYITDFARKIE,-0.651
14,HMRKSLGEIVFDRMERAIKSGAYSPDERLPTELDLAAEFEVSRPVIRDALKRLRERGLIYSRQGAGSFVRA,-0.25
15,HMSKQDRRIRRTRRLLKESLIQLMQEKEFMNISVREVTERADLNRGTFYLHYQDTRHLLQDIENETL,-1.86
16,HMEALPELTDRQRQVYEFIEARIAEWGYPPTIREIGQHLGIKSTNGVADHLKALKRKGYLQQ,-0.804
17,HMVDIEQAEFLSRQFDLLLARLDDPTIEWQDIADIRSEYTGENEHRDTIRKGSKLFYEYLQAGWIKN,-0.809
18,HMEEFLSFIADILEVDKNTLTLETSQDDVETWDSLMQLRLLGEIEAKYGVMIPMERISTIKKLNDFYQYIK,-1.76
19,HMNPLDGTSVHPESYEAAEKLLKKQGFSLEDISGGKLTGLSLTIKDYARLAKELEIGEITLRDIVKELEK,-0.747
20,HMSGLEDIKKKILEDAGIKKGSVKFVKVDKDYDDGIWKYEIDFVYDGKEYEYEIEVETGKILSRKTEKSD,0.165
21,HMIMMTLGEKIRSIRKAKGMTQQELAEKLNTTKQTIGKYEKGIVTNLPLFRINELARALSTTPAYLTGW,≥ 0.43
22,HMIKNDIGKFIKLYRETHQWSQRELAEHLGVSQRNVSYYEKGERIPPADVLKKLSTLFDVPVDVLLGLK,-0.274
23,HMATPSTGQVSVVRLNLRVSPSISSPVVTRLTQGDTVKILAASDDGRWYKVATADGRTGWLYTIYITAE,-0.209
24,HMQQRTVEHVDTAVEALALSIGERAGVDLPYMAHLTGKTQEDLIEDLTGVIFPVPGTEPLRYVTADDYLS,-0.835
25,HMALDLPVKRVKGKEYYYYKVKKGESLYGISKHLGLPLDSIVKSNPSVADGVRKGDMLLFPLEEYT,0.115
